The target of this experiment is Exoc7-sfGFP (mouse, endogenously tagged) (mouse (endogenous in normal murine mammary gland cells)) (UniProt O35250). The experiment can be described thus: co-IP.
UniProt O35250, sequence (O35250 whole entry): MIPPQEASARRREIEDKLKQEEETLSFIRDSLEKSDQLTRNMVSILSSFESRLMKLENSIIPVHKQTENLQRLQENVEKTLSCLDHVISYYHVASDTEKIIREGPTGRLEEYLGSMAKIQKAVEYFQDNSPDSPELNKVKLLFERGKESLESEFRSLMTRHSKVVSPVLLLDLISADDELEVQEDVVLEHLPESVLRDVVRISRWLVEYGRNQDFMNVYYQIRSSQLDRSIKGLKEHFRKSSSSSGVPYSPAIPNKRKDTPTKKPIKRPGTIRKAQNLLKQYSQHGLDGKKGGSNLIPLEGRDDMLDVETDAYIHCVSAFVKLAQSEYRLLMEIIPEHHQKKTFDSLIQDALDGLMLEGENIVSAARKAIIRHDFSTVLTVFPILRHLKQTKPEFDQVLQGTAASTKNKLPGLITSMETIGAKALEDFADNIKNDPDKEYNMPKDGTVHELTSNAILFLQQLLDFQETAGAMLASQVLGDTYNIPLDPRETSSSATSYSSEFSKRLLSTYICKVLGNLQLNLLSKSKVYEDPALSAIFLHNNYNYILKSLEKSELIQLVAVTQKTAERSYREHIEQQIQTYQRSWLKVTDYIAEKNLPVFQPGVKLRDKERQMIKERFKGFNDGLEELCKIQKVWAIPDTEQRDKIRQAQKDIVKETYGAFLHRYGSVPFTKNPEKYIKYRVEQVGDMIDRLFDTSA

“Exoc2 truncated, ~48-kD N-terminal fragment (mouse) (domain or fragment)” showed a percent coprecipitated with Exoc7-GFP of 53%.

Source of the values: article PMC7537385.
